The DeepSol protein solubility set

experiment: soluble on expression in E. coli; label from the status in PepcDB or PDB records

Sequence	soluble on expression in E. coli
MSLSQRTDCSLARRSSTVRKQDSSQAIPLVVESCIRFISRHGLQHEGIFRVSGSQVEVNDIKNAFERGEDPLAGDQNDHDMDSIAGVLKLYFRGLEHPLFPKDIFHDLMACVTMDNLQERALHIRKVLLVLPKTTLIIMRYLFAFLNHLSQFSEENMMDPYNLAICFGPSLMSVPEGHDQVSCQAHVNELIKTIIIQHENIFPSPREEGHHHHHH	soluble
MSLSQTTNIKEQTDTGLAPPAPAITTNSAAIEEQANSSIRKLYHTLNTMPNTSMADRISQISAYFKGTKYILGSLGEGPNARYDQFPRYRVDGFDCDTYVNTVLSLALANSLESFQECLKHTRYKNGKRSYINRNHFTSIDWNNYNQKRGLLKDITFSIRNEKKQPVALYANALINKPQWYNHKTIDTIRLQKQDKNEQEKRLVELKAKGKTLETSLSNVPYIPFTALFSENKPNLHLFSQIPNGAVIEIIRPNWDLRQQIGTELDISHLGFAIWINNELFFRQASSQYGKVVDVSLIDYLDKARSSPTIKGINIQVVLPEKPVSNGCQLFDIREGHHHHHH	soluble
MSLSRIIMLIPTGTSVGLTSVSLGVIRAMERKGVRLSVFKPIAQPRTGGDAPDQTTTIVRANSSTTTAAEPLKMSYVEGLLSSNQKDVLMEEIVANYHANTKDAEVVLVEGLVPTRKHQFAQSLNYEIAKTLNAEIVFVMSQGTDTPEQLKERIELTRNSFGGAKNTNITGVIVNKLNAPVDEQGRTRPDLSEIFDDSSKAKVNNVDPAKLQESSPLPVLGAVPWSFDLIATRAIDMARHLNATIINEGDINTRRVKSVTFCARSIPHMLEHFRAGSLLVTSADRPDVLVAACLAAMNGVEIGALLLTGGYEMDARISKLCERAFATGLPVFMVNTNTWQTSLSLQSFNLEVPVDDHERIEKVQEYVANYINADWIDSLTATSERSRRLSPPAFRYQLTELARKAGKRIVLPEGDEPRTVKAAAICAERGIATCVLLGNPAEINRVAASQGVELGAGIEIVDPEVVRESYVGRLVELRKNKGMTETVAREQLEDNVVLGTLMLEQDEVDGLVSGAVHTTANTIRPPLQLIKTAPGSSLVSSVFFMLLPEQVYVYGDCAINPDPTAEQLAEIAIQSADSAAAFGIEPRVAMLSYSTGTSGAGSDVEKVREATRLAQEKRPDLMIDGPLQYDAAVMADVAKSKAPNSPVAGRATVFIFPDLNTGNTTYKAVQRSADLISIGPMLQGMRKPVNDLSRGALVDDIVYTIALTAIQSAQQQEGHHHHHH	not soluble
MSLSRLPLIGVTACSRQIGLHAYHISGDEYVHAVASAAQGVPVIIPSMAELLSPSDILDGLDGILFTGSPSNIEPFHYQGPASAPGTAHDSARDAATLPLLSAAVASGVPVLGICRGFQEMNVALGGSLHQNVQQVQPFMDHRHAEQPGQPLDAWYAPAHDLHIKAGGVLAGLGLPERIQVNSIHAQGVERLAPGLRVEALAPDGLVEAVSVEASKAFALGVQWHPEWQVSCNPHYLAIFQAFGDACRKRARQRDAEASHKEGHHHHHH	soluble
MSLSTLKRDHIKKNLRDTEYDVVIVGGGITGAGIALDASNRGMKVALVEMQDFAQGTSSRSTKLVHGGLRYLKQLQVGVVAETGKERAIVYENGPHVTTPEWMLLPMHKGGTFGKFSTSIGLAMYDRLAGVKKSERKKMLSKQETLNKEPLVKRDGLKGGGYYVEYRTDDARLTIEVMKKAAENGAEILNYTKSEHFTYDSNKKVNGIEVLDMIDGETYAIKAKKVINASGPWVDEVRSGDYARNNKQLRLTKGVHVVIDQSKFPLGQAVYFDTEKDGRMIFAIPREGKAYVGTTDTFYDNEKATPLTTQEDRDYLINAINYMFPTVNVKDEDIESTWAGIRPLILEKGKDPSEISRKDEVWEGESGLLTIAGGKLTGYRHMALEIVDLLAKRLKQEYGLKFESCATKNLKISGGDVGGSKNFEHFVEQKVDAAKGFGIDEDVARRLASKYGSNVDQLFNIAQTAPYHDSKLPLEIYVELVYSIQQEMVYKPTDFLVRRSGKLYFNIQDVLDYKNAVIDVMADMLNYSETQKEAYTEEVEVAIDEARTGNDQPATKALEHHHHHH	soluble
MSLSVAIIGPGAVGTTIAYELQQSLPHTTLIGRHAKTITYYTVPHAPAQDIVVKGYEDVTNTFDVIIIAVKTHQLDAVIPHLTYLAHEDTLIILAQNGYGQLEHIPFKNVCQAVVYISGQKKGDVVTHFRDYQLRIQDNALTRQFRDLVQDSQIDIVLEANIQQAIWYKLLVNLGINSITALGRQTVAIMHNPEIRILCRQLLLDGCRVAQAEGLNFSEQTVDTIMTIYQGYPDEMGTSMYYDIVHQQPLEVEAIQGFIYRRAREHNLDTPYLDTIYSFLRAYQQNEGHHHHHH	soluble
MSLSWYEEWFWSDAYTRVYDHRDDAEAEQLVDLIEHEIAPASGAHILDIGCGRGRHARALVRRGWQVTGLDLSEDAVAAARSRVADDDLDVRASFRVGDMRTPVCDGCADGVVNLFTSFGYFDADAENERALAAMATALRPGGWFLQDFLNAPQVAESLGASVYETEDGRTIHQDRWIEDGRVNKKITVRQNGHTETFQESVRLYTRSDLTAMYERVGLEVVALFGDYDGGNYVPDESPRLLLHAVRPTEGHHHHHH	soluble
MSLSYVHTEIQNDALYITLDYPEKKNGLDAELGTSLLEAIRAGNNETSIHSIILQSKHRAYFSSGPRLEDLLICASDQSDVRLREVLHVLNHCVLEIFTSPKVTVALINGYAYGGGFNMMLACDRRIALRRAKFLENFHKMGISPDLGASYFLPRIIGYEQTMNLLLEGKLFTSEEALRLGLIQEICENKQELQERVKNYLKAVSEGYVPAIAATKKLLKGKAAEELKQQLEQETEELVALFKQTEIKKRLEALVEGHHHHHH	soluble
MSLTALYVQNKINGKIILPFSHSMTNVLRLNRSYGRTMLISNTYNQHFPQLTQEQLARNATKKVICGMSGGVDSSVSAFILQQQGYQVEGLFMKNWEEDDDTDYCTAAADLADAQAVCDKLGIKLHKINFAAEYWDNVFEHFLTEYKAGRTPNPDILCNKEIKFKAFLEYAAEDLGADYIATGHYVRRAGDNENAKLLRGLDPNKDQSYFLYTLSHKQVGQSLFPVGEIEKPIVRAIAEDLGLITAKKKDSTGICFIGERKFKDFLARYLPAQPGNIRTVDDEIIGRHDGLMYHTLGQRKGLGIGGLKNAGDEAWYVVDKDVENNELIVAQGHDHPRLFSKGLIASQLHWVDREPIRESLRCTVKTRYRQQDIPCVIEPIDDETIRVIFDEPQSAVTPGQSAVFYLGEVCLGGGIIAERIEGHHHHHH	soluble
MSLTASAPRRPAAFLDRDGVINYNDHYVGTRERLRWMPGIAAAIRQLNAAGYYVFIITNQSGVARGMFSEDDVRALHRWMLDELNTQGARIDDVRFCPHHVEGTLDAYRVACEHRKPGPGMILDLAKTWPVDMTRSFVIGDSASDVEAAKAAGIPGFRFEGEDIDVFVKQVLIEMQRAAVSNEGHHHHHH	soluble
MSLTASIPINSNLIVHVGNNVRIDAFGLKARLTGDLNVVQDKQGLGLNGQINIPEGRFHAYGQDLIVRKGELLFSGPPDQPYLNIEAIRNPDATEDDVIAGVRVTGLADEPKAEIFSDPAMSQQAALSYLLRGQGLESDQSDSAAMTSMLIGLGVAQSGQIVGKIGETFGVSNLALDTQGVGDSSQVVVSGYVLPGLQVKYGVGIFDSIATLTLRYRLMPKLYLEAVSGVDQALDLLYQFEFEGHHHHHH	not soluble
MSLTDIRDHRDMLTVHHLNNSRSQRVLWLLEELDTPYEIKRYQRQPDMMAPKELRAVHPLGKSPVITDNGNTIAESGAIIEYIVGTYGNGRLIPPPNTPERLRYTYWLHYAEGSAMPPLLLKLLFSMMPQRAPALVRPLVKMVASGALTGFVDPQLKLHMDYWESELGKAAYFAGDEFTAADIQMSFPLEAAAARGGLDQRYPKAQAWLERIHARPAYNRALEKGGPYEIGKAEGHHHHHH	soluble
MSLTEAAKLTFKVTNPNEKVKVRLTFSQSGEQKEVAIDAAGNGNIEITGFTPQYVTMQYTRGRRTLYLDPNQDLTLSFDSDNMWRNTTFEGAGAAINTYLGSKELQSLGMPDMKMQEAALIHKGDSLYAANCQVLEAAKLPADFTAQEKIRLQFYTYYYFSKYALYHPHFGKDDNYIPSKAYYEKLEAITPINAGLLALKEYKAFLPDAISAFSNKGKTVASNSTEQSVNYVDATIQDEKVAEFLIDQFVYNFVDNNGLDEADGLIVLFRKHVKDAKSIEKFNALCTKWEKLRSGNPSAASFSYPDINGKTVSLADLKGKYIYIDVWATWCGPCRGELPALKELEEKYAGKDIHFVSLSCDKNKKAWENMVTKDQLKGIQLHMGTDRTFMDAYLINGIPRFILLDRDGKIISANMTRPSDPKTAEKFNELLGLEGHHHHHH	soluble
MSLTELEFVTEHRRYLHKHPELSLHEYETTKYIAHFLDDLGVPYERPLDTGVIAYLSGNSTHTIAYRADIDALPIYEENNVSYRSEVDHVMHACGHDGHTTALMLFVKRCKNLADKGELPQNIVFIFQPAEETGGGANRLIRAGAFEKYPIEAVFGIHVMPFENEGRVVIRDEEITASATEYRFYLHGLSSHVADKEQGHSCGEALQHVLTQVGQIQQYHLNGLKRNIVHMGHFEAGEAINTVPSNGYLEGTIRTYDVKDLEIVKQQMTKISESVKLLFNVECEVKFEEGYPPTFNDPQLRKHVENGLVNAEFEVIDKPTPYLFGEDFSFYSQIAPSYFVFVGVRDEAKGYVTGLHTSHLNFNESILIRIADYYEQILKSYSEVQSEGHHHHHH	soluble
MSLTETILSVGIDLGTSTTQLILSELEIQNMASSFTVPRIVISDKRIIFRSEILFTPILADNLIDVEAIRDFVTKEYANAGIKKEEIGMGAVIITGETARKDNASNVLDAMSGFAGDFVVATAGPDLESIIAGKGAGAHTYAKENNTSVVNLDIGGGTTNLSLFDRGELIDTACLDIGGRLIKVDRETRKITYIAPKIQALIEKRGYPVKLGETTSPENLQPVLGEMVELLKNSVGLGAPNDFYKTIITNKGLKFLTEIECISFSGGVADCISTGALSDPFRYGDIGLLLGKAIAESSLMTEKKYIESVETIRATVVGAGSHTAEISGSTITYTEKIFPVKNIPILKLAKQEEDENMAEVIKEKLSWFKIENEMEHIALAIEGENSPSFQQVTEYAKAICEGMKEPIALGHPLIIITWHDMAKALGQSIFGHLPAGHPLICLDSVKVDNGDYIDIGKPVADGKVLPVVVKTLVFNEGHHHHHH	soluble
MSLTGVLGFYTLEEGPTLPSSFTSFANNTGQLSSTALFMFRISAANPTTIEKFGEFTDQDVRNLVAIAHRNNVKIMPVVHNLLYRPGGTTLAKNVVKTLVSDPRNRNAFALNLVNLIERYGFDGVNIDIEDVFIEDSDNLSLLYTEISEVLRPRGYFFSASVPSRVSDEPFNPFSDPFNYSVIGRAVDEFVVMLYNEFGWPGSPPGPAVTIGWMERVLRYTMSKMPRDKIMAAVSVFGFDFNLTTGRNTYVTYQSAINLARRYNSEIIFNEERQTPMFTYRDAQGNQHEVWFEDARSLRSKIQLAWELGIKGVALWRLGMEDPNIWPMLRNEVVVRKFEGHHHHHH	soluble
